Results as given in US20180243434A1 (INSERM INSTITUT NATIONAL DE LA SANT ET DE LA RECHERCHE M …, published 2018).
Values belong to the binder of their own block, whether it stands above or below them.

Tests used:
[1] = target: T1, endogenous nectin-4 on SUM190 cells (human, UniProt Q96NY8 32-510); experiment: cell-based or functional assay
T1 sequence (looked up): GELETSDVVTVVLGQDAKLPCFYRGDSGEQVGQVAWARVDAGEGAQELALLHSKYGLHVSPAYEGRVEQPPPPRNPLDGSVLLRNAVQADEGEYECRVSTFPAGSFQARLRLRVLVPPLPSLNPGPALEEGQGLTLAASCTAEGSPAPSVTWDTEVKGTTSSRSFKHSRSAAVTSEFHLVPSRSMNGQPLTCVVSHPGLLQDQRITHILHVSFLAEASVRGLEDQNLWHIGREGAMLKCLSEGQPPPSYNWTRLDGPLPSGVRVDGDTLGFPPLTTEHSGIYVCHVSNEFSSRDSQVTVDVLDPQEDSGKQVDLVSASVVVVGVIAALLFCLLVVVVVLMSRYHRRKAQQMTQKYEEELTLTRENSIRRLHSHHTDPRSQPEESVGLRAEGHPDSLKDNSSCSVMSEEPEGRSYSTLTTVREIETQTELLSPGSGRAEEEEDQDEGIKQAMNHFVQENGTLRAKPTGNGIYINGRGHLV

[2] = target: T2, N-terminal Flag-tagged nectin4 expressed in MDA-MB-231 cells (human, UniProt Q96NY8 32-510); experiment: cell-based or functional assay
T2 sequence (looked up): T1 sequence (looked up)

[3] = target: T3, nectin1V-Fc (comprising only the IgV domain) (UniProt Q15223 31-143, limits assumed); experiment: ELISA, plate coated with 5 ug/ml nectin1V-Fc
T3 construct: domain: IgV domain; not shown: Fc part
T3 sequence (looked up): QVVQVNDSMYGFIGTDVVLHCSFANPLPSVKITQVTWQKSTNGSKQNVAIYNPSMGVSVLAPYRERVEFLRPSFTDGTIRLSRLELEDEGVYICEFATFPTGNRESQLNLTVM
Protocol: A: Detection by ELISA. Ninety-six-well trays were coated with 5 ug/ml of nectin4V-Fc or nectin1V-Fc (comprising only the IgV domain) overnight at +4° C. as indicated. N41mab recognizes the nectin4V-Fc (bar 3) not the nectin1V-Fc (bar 1).
A sandwich enzyme-linked immunosorbent assay was used to control specificity of N41mab antibody and to perform competition assays between mabs. Ninety-six-well trays were coated with 5 μg/ml of nectin4V-Fc or nectin1V-Fc (comprising only the IgV domain) overnight at +4° C. After washes and saturation with PBS 1% BSA cells were incubated overnight with 0.625 μg/ml of N41mab. Peroxydase conjugated goat anti mouse antibody was incubated 2 h at 25° C. (Pierce). In the case of competition, binding of peroxidase conjugated N41mab was measured in the presence of vairable concentration of “cold” mab. One hundred ul of peroxidase substrate was added (One Step ABST, Pierce), and OD was read at 405 nm.
A sandwich enzyme-linked immunosorbent assay was used to control the specificity of the N41mab antibody. Ninety-six-well trays were coated with 5 μg/ml of nectin4V-Fc or nectin1V-Fc (comprising only the IgV domain) overnight at +4° C. After washes and saturation with PBS 1% BSA cells were incubated overnight with 0.625 μg/ml of mab1/N41mab. […] One hundred μ1 of peroxidase substrate was added (One Step ABST, Pierce), and OD was read at 405 nm.

IC50 (cell growth, alamarBlue) [1]: 4 ng/mL | IC50 (cell growth, alamarBlue) [2]: 2 ng/mL
B1: N41mab-vcMMAE (antibody, V domains shown)
VH: QVQLKQSGPGLVQPSQSLSITCTVSGFSLTNYGVHWVRQSPGKGLEWLGVIWSGGSTDYNAAFISRLSISKDTSKSQVFFKMNSLQADDTAIYYCARELIHAMDNWGQGTSVTVSS
VL: DIQMTQSPASLSVSVGETVTITCRASENIYSNLAWYQQKQGNSPQLLVFAATNLADGVPSRFSGSGSGTQYSLKINSLQSEDFGTYYCQHFWGTPTFGGGTKLEIK
modifications: monomethyl auristatin-E (MMAE) conjugated through the MC-Val-Cit-PAB linker; drug to antibody ratio 4.73; sites not stated

binding result [3]: no binding (tested: 0.625 µg/ml)
B2: N41mab antibody (antibody, V domains shown)
VH: B1 VH
VL: B1 VL
notes: Mouse monoclonal antibody from a hybridoma (mice immunized with nectin4 V-Fc); also called mab1; Mab1
